Experimental data reported in patent US20250283886.

Experiments:
[1] = biological target: T1, FFMFFM{LYS(N3)} peptide-linker conjugate, oligo linker (Table 6 entry 6)
T1 chain: FFMFFMX

[2] = biological target: T2, KKMKKM{LYS(N3)} peptide-linker conjugate, oligo-PEG linker (Table 6 entry 3)
T2 chain: KKMKKMX

[3] = biological target: T3, KKMKKM{LYS(N3)} peptide-linker conjugate, PEG4 linker (Table 6 entry 4)
T3 chain: KKMKKMX

[4] = biological target: […]{LYS(N3)} peptide-linker conjugate, oligo linker (Table 6 entry 5)
[5] = biological target: […]{LYS(N3)} peptide-linker conjugate, oligo linker (Table 6 entry 7)
[6] = biological target: KF peptide-linker conjugate, oligo linker (Table 6 entry 1)
[7] = biological target: T4, KKMKKM{LYS(N3)} peptide-linker conjugate, oligo linker (Table 6 entry 2)
T4 chain: KKMKKMX

[8] = biological target: T5, FAAAWPDDDF1
T5 chain: FAAAWPDDDF

[9] = biological target: T6, FAAAYPDDDF1
T6 chain: FAAAYPDDDF

[10] = biological target: T7, WAAAFPDDDF1
T7 chain: WAAAFPDDDF

[11] = biological target: T8, FYPLPWPDDDY{LYSN3}NH2
T8 chain: FYPLPWPDDDYX

B1: rat aminopeptidase N (protein)
chain: KPWNQYRLPKTLIPDSYQVTLRPYLTPNEQGLYIFKGSSTVRFTCNETTNVIIIHSKKLNYTNKGNHRVALRALGDTPAPNIDTTELVERTEYLVVHLQGSLVKGHQYEMDSEFQGELADDLAGFYRSEYMEGGNKKVVATTQMQAADARKSFPCFDEPAMKASFNITLIHPNNLTALSNMLPKDSRTLQEDPSWNVTEFHPTPKMSTYLLAYIVSEFKYVEAVSPNRVQIRIWARPSAIDEGHGDYALQVTGPILNFFAQHYNTAYPLEKSDQIALPDFNAGAMENWGLVTYRESALVFDPQSSSISNKERVVTVIAHELAHQWFGNLVTVDWWNDLWLNEGFASYVEFLGADYAEPTWNLKDLIVLNDVYRVMAVDALASSHPLSSPANEVNTPAQISELFDSITYSKGASVLRMLSSFLTEDLFKKGLSSYLHTFQYSNTIYLDLWEHLQQAVDSQTAIKLPASVSTIMDRWILQMGFPVITVNTSTGEIYQEHFLLDPTSKPTRPSDFNYLWIVPIPYLKNGKEDHYWLETEKNQSAEFQTSSNEWLLLNINVTGYYQVNYDENNWRKIQNQLQTDLSVIPVINRAQIIHDSFNLASAGKLSITLPLSNTLFLASETEYMPWEAALSSLNYFKLMFDRSEVYGPMKRYLKKQVTPLFAYFKIKTNNWLDRPPTLMEQYNEINAISTACSSGLEECRDLVVGLYSQWMNNSDNNPIHPNLRSTVYCNAIAFGGEEEWNFAWEQFRKATLVNEADKLRSALACSNEVWILNRYLSYTLNPDYIRKQDATSTIVSIANNVVGQTLVWDFVRSNWKKLFEDYGGGSFSFANLIQGVTRRFSSEFELQQLEQFKEDNSATGFGSGTRALEQALEKTKANIKWVKENKDVVLKWFTENS
Cleaved by Rat APN [1]: Yes
Cleaved by Rat APN [2]: No
Cleaved by Rat APN [3]: Yes
Cleaved by Rat APN [4]: Yes
Cleaved by Rat APN [5]: Yes
Cleaved by Rat APN [6]: No
Cleaved by Rat APN [7]: No

B2: Vibrio proteolyticus aminopeptidase (protein)
chain: MPPITQQATVTAWLPQVDASQITGTISSLESFTNRFYTTTSGAQASDWIASEWQALSASLPNASVKQVSHSGYNQKSVVMTITGSEAPDEWIVIGGHLDSTIGSHTNEQSVAPGADDDASGIAAVTEVIRVLSENNFQPKRSIAFMAYAAEEVGLRGSQDLANQYKSEGKNVVSALQLDMTNYKGSAQDVVFITDYTDSNFTQYLTQLMDEYLPSLTYGFDTCGYACSDHASWHNAGYPAAMPFESKFNDYNPRIHTTQDTLANSDPTGSHAKKFTQLGLAYAIEMGSATGDTPTPGNQ
HPLC Assay Conv; 600 uM Peptide, 8 uM enzyme, pH 8, RT/0.5 hr [8]: 100%
HPLC Assay Conv; 600 uM Peptide, 0.08 uM enzyme, RT/0.5 hr [9]: 5%
HPLC Assay Conv; 600 uM Peptide, 0.8 uM enzyme, RT/0.5 hr [9]: 50%
HPLC Assay Conv; 600 uM Peptide, 8 uM enzyme, RT/0.5 hr [9]: 100%
HPLC Assay Conv; 300 uM Peptide, 8 uM enzyme, 50/50 MOPS Mg buffer/RB1, RT/0.5 hr [10]: 30%
HPLC Assay Conv; 300 uM Peptide, 8 uM enzyme, RB2 + Mg, RT/0.5 hr [10]: 5%
HPLC Assay Conv; 300 uM Peptide, 8 uM enzyme, RB4, RT/0.5 hr [10]: 100%
HPLC Assay Conv; 300 uM Peptide, 8 uM enzyme, pH 8, 60 mM KOAc, RT/0.5 hr [10]: 70%
HPLC Assay Conv; 300 uM Peptide, 8 uM enzyme, pH 8, 60 mM KOAc, RT/2 hr [10]: 100%
HPLC Assay Conv; 300 uM Peptide, 8 uM enzyme, pH 8, 0.2% Tween20, RT/0.5 hr [10]: 100%
HPLC Assay Conv; 300 uM Peptide, 8 uM enzyme, pH 8, RT/0.5 hr [10]: 100%
HPLC Assay Conv; 600 uM Peptide, 8 uM enzyme, pH 8, RT/0.5 hr [10]: 100%
HPLC Assay Conv; 200 uM Peptide, 8 uM enzyme, MOPS pH 5.0, RT/0.5 hr [11]: 100%
HPLC Assay Conv; 200 uM Peptide, 8 uM enzyme, MOPS pH 5.0, RT/1 hr [11]: 100%
HPLC Assay Conv; 600 uM Peptide, 0.8 uM enzyme, pH 5.5, RT/0.5 hr [11]: 100%
HPLC Assay Conv; 600 uM Peptide, 0.8 uM enzyme, pH 6.5, RT/0.5 hr [11]: 100%
HPLC Assay Conv; 600 uM Peptide, 0.8 uM enzyme, pH 7.5, RT/0.5 hr [11]: 100%
HPLC Assay Conv; 600 uM Peptide, 0.8 uM enzyme, pH 8.5, RT/0.5 hr [11]: 100%
HPLC Assay Conv; 1200 uM Peptide, 800 pM enzyme, pH 7.5, RT/0.5 hr [11]: 2.70%
HPLC Assay Conv; 1200 uM Peptide, 800 pM enzyme, pH 8.5, RT/0.5 hr [11]: 6.80%
HPLC Assay Conv; 1200 uM Peptide, 0.008 uM enzyme, pH 5.5, RT/0.5 hr [11]: 1.40%
HPLC Assay Conv; 1200 uM Peptide, 0.008 uM enzyme, pH 6.5, RT/0.5 hr [11]: 56%
HPLC Assay Conv; 1200 uM Peptide, 0.008 uM enzyme, pH 7.5, RT/0.5 hr [11]: 100%
HPLC Assay Conv; 1200 uM Peptide, 0.008 uM enzyme, pH 8.5, RT/0.5 hr [11]: 100%
HPLC Assay Conv; 1200 uM Peptide, 0.08 uM enzyme, pH 5.5, RT/0.5 hr [11]: 50%
HPLC Assay Conv; 1200 uM Peptide, 0.08 uM enzyme, pH 6.5, RT/0.5 hr [11]: 100%
HPLC Assay Conv; 1200 uM Peptide, 0.08 uM enzyme, pH 7.5, RT/0.5 hr [11]: 100%
HPLC Assay Conv; 1200 uM Peptide, 0.08 uM enzyme, pH 8.5, RT/0.5 hr [11]: 100%
